Laboratory results published in patent publication US20040091475A1 (Chugai, published 2004).

Legend:
[1] = molecular target: T1, human Integrin Associated Protein (IAP) expressed on mouse leukemia cell line L1210 (human, UniProt Q08722 19-323); experiment: flow cytometry on L1210 cells expressing human IAP; COS7 culture supernatant; mouse anti-FLAG antibody, then FITC-labeled anti-mouse IgG antibody
T1 construct: whole, on cells; also called human IAP; hIAP/L1210
Description: Flow cytometry was performed using the aforementioned COS7 cells culture supernatant to measure the binding to the antigen. The culture supernatant of the COS7 cells expressing the reconstructed single chain Fv of antibody MABL-2 or the culture supernatant of COS7 cells transformed with pCHO1 vector as a control was added to 2×10⁵ cells of the mouse leukemia cell line L1210 expressing human Integrin Associated Protein (IAP) or the cell line L1210 transformed with pCOS1 as a control. After incubating on ice and washing, the mouse anti-FLAG antibody (SIGMA) was added. Then the cells were incubated and washed. Then, the FITC labeled anti-mouse IgG antibody (BECTON DICKINSON) was added thereto and the cells were incubated and washed again. Subsequently, the fluorescence intensity was measured using the FACScan apparatus (BECTON DICKINSON).

[2] = molecular target: T2, secretion-type human IAP antigen (human, UniProt Q08722 19-142, limits assumed); experiment: competitive ELISA: secretion-type human IAP captured on anti-FLAG antibody; competitor biotinized MABL-2 antibody at 100 ng/ml; serial dilutions of COS7 culture supernatant (x axis: dilution ratio of CM, no concentration unit)
T2 construct: captured on plates coated with anti-FLAG antibody
Description: The binding activity of the reconstructed single chain Fv of antibody MABL-2 was measured based on the inhibiting activity against the binding of mouse monoclonal antibodies to the antigen.
The anti-FLAG antibody adjusted to 1 μg/ml was added to each well on 96-well plate and incubated at 37° C. for 2 hours. After washing, blocking was performed with 1% BSA-PBS. After incubating and washing at a room temperature, the culture supernatant of COS7 cells into which the secretion-type human IAP antigen gene (SEQ ID No. 26) had been introduced was diluted with PBS into twofold volume and added to each well. After incubating and washing at a room temperature, a mixture of 50 μl of the biotinized MABL-2 antibody adjusted to 100 ng/ml and 50 μl of sequentially diluted supernatant of the COS7 cells expressing the reconstructed single chain Fv of antibody MABL-2 were added into each well. After incubating and washing at a room temperature, the alkaline phosphatase-conjugated streptoavidin (Zymed) was added into each well. After incubating and washing at a room temperature, the substrate solution (SIGMA) was added and absorbance of the reaction mixture in each well was measured at 405 nm.

T2 sequence (Q08722 other isoform, or with tags, fused parts or gaps limits assumed): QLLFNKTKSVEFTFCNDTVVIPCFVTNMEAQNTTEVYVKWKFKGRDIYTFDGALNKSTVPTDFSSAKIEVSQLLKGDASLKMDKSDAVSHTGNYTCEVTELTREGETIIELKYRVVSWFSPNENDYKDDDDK
T1 sequence (Q08722 19-323): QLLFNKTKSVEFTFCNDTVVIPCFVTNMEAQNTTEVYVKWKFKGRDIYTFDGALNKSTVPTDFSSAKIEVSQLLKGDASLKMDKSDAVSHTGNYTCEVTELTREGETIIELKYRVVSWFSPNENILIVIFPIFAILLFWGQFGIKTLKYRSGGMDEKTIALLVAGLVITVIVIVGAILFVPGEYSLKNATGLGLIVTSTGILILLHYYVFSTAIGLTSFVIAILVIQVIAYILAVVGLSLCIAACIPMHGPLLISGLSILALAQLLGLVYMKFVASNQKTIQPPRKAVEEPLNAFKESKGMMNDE

B1: reconstructed single chain Fv of antibody MABL-2 (plasmid pCHOM2), culture supernatant of COS7 cells (scFv)
scFv: QVQLQQSGPELVKPGASVKMSCKASGYTFANHVIHWVKQKPGQGLEWIGYIYPYNDGTKYNEKFKDKATLTSDKSSTTAYMDLSSLASEDSAVYYCARGGYYTYDDWGQGTTLTVSSGGGGSGGGGSGGGGSDVVMTQSPLSLPVSLGDQASISCRSSQSLVHSNGKTYLHWYLQKPGQSPKLLIYKVSNRFSGVPDRFSGSGSVTDFTLMISRVEAEDLGVYFCSQSTHVPYTFGGGTKLEIKDYKDDDDK
notes: VH-(Gly4Ser)3-VL-FLAG; Unfractionated supernatant (monomer and dimer not separated); also called MABL2-scFv; MABL2-scFv/COS7
- binding result [1]: binds
- binding result [2]: binds
